Measurements published in paper PMC11721787 (Science translational medicine, 2023).

B1: ADI-42898 monovalent antibody-binding fragment (Fab) (Fab, V domains shown)
VH: QVQLVESGGGVVQPGRSLRLSCAASGFTFSSYAMHWVRQAPGKGLEWVAVTWFDVSKKDYADSVKGRFTISRDNSKNTLYLQMNSLRAEDTAVYYCARNLIRYSGSYFPVHGMDVWGQGTTVTVSS
VL: DIVMTQSPLSLPVTPGEPASISCRSSQSLLHTYGYNCLDWYLQRPGQSPQLLISLGSYRASGVPDRFSGSGSGTDFTLKISRVEAEDVGVYYCMQALHPFTFGGGTKVEIK
B2: ADI-42898 (monoclonal antibody, IgG) (antibody, V domains shown)
VH: B1 VH
VL: B1 VL
B3: ADI-42898 single-chain, variable domain fragment (scFv) (scFv, V domains shown)
VH: B1 VH
VL: B1 VL

How the values were obtained:
[1] = biological target: PUUV Gn/Gc on virus-like particles (VLPs) (Puumala orthohantavirus, strain of the …, UniProt A0A0B4U5I0); experiment: ELISA
[2] = biological target: PUUV Gn^H (head of Gn) (Puumala virus, UniProt P27312); experiment: crystal structure
Chain of PUUV Gn^H (head of Gn) (P27312 20-381): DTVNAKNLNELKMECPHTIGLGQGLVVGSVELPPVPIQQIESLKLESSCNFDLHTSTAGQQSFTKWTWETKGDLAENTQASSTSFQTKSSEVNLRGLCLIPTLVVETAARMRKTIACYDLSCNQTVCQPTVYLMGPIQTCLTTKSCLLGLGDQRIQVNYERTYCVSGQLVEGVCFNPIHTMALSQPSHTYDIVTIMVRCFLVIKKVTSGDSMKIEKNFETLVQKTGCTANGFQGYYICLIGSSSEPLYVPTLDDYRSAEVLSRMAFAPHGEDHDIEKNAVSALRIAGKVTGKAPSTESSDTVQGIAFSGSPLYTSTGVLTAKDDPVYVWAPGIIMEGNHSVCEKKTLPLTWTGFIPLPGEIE

[3] = biological target: PUUV Gc ectodomain (Puumala virus, UniProt P27312); experiment: crystal structure
Chain of PUUV Gc ectodomain (P27312 659-1093): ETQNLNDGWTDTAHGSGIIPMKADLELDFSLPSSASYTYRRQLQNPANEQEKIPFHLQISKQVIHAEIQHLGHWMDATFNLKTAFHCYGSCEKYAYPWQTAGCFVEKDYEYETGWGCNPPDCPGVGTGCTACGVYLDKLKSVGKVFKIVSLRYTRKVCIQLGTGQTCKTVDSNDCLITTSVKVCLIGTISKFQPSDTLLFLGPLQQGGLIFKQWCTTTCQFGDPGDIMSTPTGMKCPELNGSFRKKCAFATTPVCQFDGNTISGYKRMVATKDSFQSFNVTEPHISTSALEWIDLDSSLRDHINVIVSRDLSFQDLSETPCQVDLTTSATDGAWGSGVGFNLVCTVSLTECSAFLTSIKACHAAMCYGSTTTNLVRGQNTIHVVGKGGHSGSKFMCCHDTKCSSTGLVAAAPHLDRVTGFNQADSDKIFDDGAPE

Binder | binding result [1] | binding result [2] | binding result [3]
B1 | binds |  | 
B2 | binds |  | 
B3 |  | binds | binds
